Four proteins from publication PMC3777628 (Virology, 2013) can be followed below.

The data set deals with the molecule itself. In words: SDS-PAGE of SDS-resistant dimers and oligomers.

With ILIFLLEFLLDFCTGEDSVDGKKRQRHSGLTEQTYSALPEPKAT (domain or fragment) [MBP-Agno (28–71)], the binding result is “binds”.

B1: MBP-Agno Ala(34–36) (natural protein)
chain: MVLRQLSRKASVKVSKTWSGTKKRAQRILIFLLAAALDFCTGEDSVDGKKRQRHSGLTEQTYSALPEPKAT
B1: the binding result is listed as “binds”.

For the protein AQRILIFLLEFLLDFCTGEDSVDGKKRQRHSGLTEQTYSALPEPKAT (domain or fragment) [MBP-Agno (25–71)], the binding result is on record as “binds”.

B2: MBP-Agno (17–71) (domain or fragment)
chain: TWSGTKKRAQRILIFLLEFLLDFCTGEDSVDGKKRQRHSGLTEQTYSALPEPKAT
Consider B2, for which the binding result is on record as “binds”.
